The source of these data is publication doi:10.1101/2023.03.13.532366 (bioRxiv, 2023).

Like-named read-outs stand apart in the source and are kept apart here.

T1: mIL-12Rβ2_(D1-D6)-Strep-II Tag (non pre-dimerized) (mouse, UniProt P97378 24-637)
T1 sequence (looked up): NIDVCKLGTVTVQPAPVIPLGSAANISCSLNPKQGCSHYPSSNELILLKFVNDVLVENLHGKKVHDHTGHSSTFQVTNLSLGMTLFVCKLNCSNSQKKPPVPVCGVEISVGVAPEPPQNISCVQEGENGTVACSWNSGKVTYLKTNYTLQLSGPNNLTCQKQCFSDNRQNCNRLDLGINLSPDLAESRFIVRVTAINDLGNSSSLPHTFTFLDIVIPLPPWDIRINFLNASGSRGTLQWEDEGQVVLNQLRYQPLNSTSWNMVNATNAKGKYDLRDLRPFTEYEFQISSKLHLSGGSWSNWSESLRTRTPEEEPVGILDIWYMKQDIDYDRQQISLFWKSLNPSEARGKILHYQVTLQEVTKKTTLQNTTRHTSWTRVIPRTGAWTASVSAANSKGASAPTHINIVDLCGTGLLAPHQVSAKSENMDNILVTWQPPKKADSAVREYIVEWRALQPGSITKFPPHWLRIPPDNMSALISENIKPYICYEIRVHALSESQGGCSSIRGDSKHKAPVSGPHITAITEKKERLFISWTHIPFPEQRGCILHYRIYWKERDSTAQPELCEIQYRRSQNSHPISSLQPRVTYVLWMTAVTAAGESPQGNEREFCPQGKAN

T2: hIL-12B (p40), subunit of hIL-23 in the cryo-EM complex (human, UniProt P29460 23-328)
T2 sequence (looked up): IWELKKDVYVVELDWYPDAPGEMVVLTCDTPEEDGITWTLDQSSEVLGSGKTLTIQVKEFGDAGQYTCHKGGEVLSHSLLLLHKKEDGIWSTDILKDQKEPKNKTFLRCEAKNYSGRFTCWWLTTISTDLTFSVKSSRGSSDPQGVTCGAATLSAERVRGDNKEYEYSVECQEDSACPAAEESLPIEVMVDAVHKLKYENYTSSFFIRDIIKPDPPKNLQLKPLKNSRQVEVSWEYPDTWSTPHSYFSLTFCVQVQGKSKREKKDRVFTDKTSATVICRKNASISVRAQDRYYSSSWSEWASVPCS

T3: hIL-12B (p40) of the crystallised hIL-23 (hIL-23a:hIL-12b co-transfection) (human, UniProt P29460 23-328)
T3 sequence (looked up): T2 sequence (looked up)

T4: mIL-12B (p40), untagged, of the crystallised mIL-12 (mouse, UniProt P43432 23-335)
T4 sequence (looked up): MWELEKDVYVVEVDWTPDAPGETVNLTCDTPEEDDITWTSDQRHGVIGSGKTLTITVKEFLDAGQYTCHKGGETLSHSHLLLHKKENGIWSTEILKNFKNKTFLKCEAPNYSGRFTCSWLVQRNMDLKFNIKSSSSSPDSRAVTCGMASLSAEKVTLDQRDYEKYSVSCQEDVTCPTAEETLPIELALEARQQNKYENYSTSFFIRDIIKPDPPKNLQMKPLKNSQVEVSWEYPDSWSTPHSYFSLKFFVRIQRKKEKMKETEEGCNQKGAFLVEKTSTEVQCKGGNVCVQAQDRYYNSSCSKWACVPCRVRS

B1: mIL-12B (p40), subunit of mIL-12 in the cryo-EM complexes (mIL-12b-Casp3-AviTag-His6, tags cleaved) (natural protein, mouse, UniProt P43432 23-335, looked up)
chain: T4 sequence (looked up)
B2: murine IL-12 (mIL-12), heterodimer of mIL-12A (p35) and mIL-12B (p40), as in the cryo-EM receptor complexes (complex, mouse)
chain 1: RVIPVSGPARCLSQSRNLLKTTDDMVKTAREKLKHYSCTAEDIDHEDITRDQTSTLKTCLPLELHKNESCLATRETSSTTRGSCLPPQKTSLMMTLCLGSIYEDLKMYQTEFQAINAALQNHNHQQIILDKGMLVAIDELMQSLNHNGETLRQKPPVGEADPYRVKMKLCILLHAFSTRVVTINRVMGYLSSA
chain 2: T4 sequence (looked up)
B3: hIL-23A (p19), subunit of hIL-23 in the cryo-EM complex (natural protein, human, UniProt Q9NPF7 20-189, looked up)
chain: RAVPGGSSPAWTQCQQLSQKLCTLAWSAHPLVGHMDLREEGDEETTNDVPHIQCGDGCDPQGLRDNSQFCLQRIHQGLIFYEKLLGSDIFTGEPSLLPDSPVGQLHASLLGLSQLLQPEGHHWETQQIPSLSPSQPWQRLLLRFKILRSLQAFVAVAARVFAHGAATLSP
B4: hIL-23A (p19) of the crystallised hIL-23 (hIL-23a:hIL-12b co-transfection) (natural protein, human, UniProt Q9NPF7 20-189, looked up)
chain: B3 chain
B5: Fab4_(CrystalKappa) (Crystal Kappa form of Fab4) (Fab, V domains shown)
VH: QVQLVESGGGVVQPGRSLRLSCAASGFTFTSYGMSWVRQAPGKGLEWVAGISYDASDTEYADSVKGRFTISRDNSKNTLYLQMNSLRAEDTAVYYCARSPDYIIDYGFDYWGRGTLVTVSS
VL: AIQMTQSPSSLSASVGDRVTITCRASQGISSDLAWYQQKPGKAPKLLIYDASSLQSGVPSRFSGSGSGTDFTLTISSLQPEDFATYYCQQYWWYPFTFGQGTKVEIK
B6: Fab4 (wild-type; antigen-binding portion of an antagonistic anti-IL-12Rβ1 antibody) (Fab, V domains shown)
VH: B5 VH
VL: B5 VL
B7: mIL-12Rβ1_(D1-D5)-Strep-II Tag (non pre-dimerized) (receptor, mouse, UniProt Q60837 20-565, looked up)
chain: QLGASGPGDGCCVEKTSFPEGASGSPLGPRNLSCYRVSKTDYECSWQYDGPEDNVSHVLWCCFVPPNHTHTGQERCRYFSSGPDRTVQFWEQDGIPVLSKVNFWVESRLGNRTMKSQKISQYLYNWTKTTPPLGHIKVSQSHRQLRMDWNVSEEAGAEVQFRRRMPTTNWTLGDCGPQVNSGSGVLGDIRGSMSESCLCPSENMAQEIQIRRRRRLSSGAPGGPWSDWSMPVCVPPEVLPQAKIKFLVEPLNQGGRRRLTMQGQSPQLAVPEGCRGRPGAQVKKHLVLVRMLSCRCQAQTSKTVPLGKKLNLSGATYDLNVLAKTRFGRSTIQKWHLPAQELTETRALNVSVGGNMTSMQWAAQAPGTTYCLEWQPWFQHRNHTHCTLIVPEEEDPAKMVTHSWSSKPTLEQEECYRITVFASKNPKNPMLWATVLSSYYFGGNASRAGTPRHVSVRNQTGDSVSVEWTASQLSTCPGVLTQYVVRCEAEDGAWESEWLVPPTKTQVTLDGLRSRVMYKVQVRADTARLPGAWSHPQRFSFEVQIS
B8: mIL-12A (p35), untagged subunit of mIL-12 in the cryo-EM complexes (natural protein, mouse, UniProt P43431 23-215, looked up)
chain: B2 chain 1
B9: mIL-12A (p35) of the crystallised mIL-12 (mIL-12a-AviTag-His6, digested with Caspase-3) (natural protein, mouse, UniProt P43431 23-215, looked up)
chain: B2 chain 1

Test [1] deals with B7. In words: cryo-EM structure.
Test [2] has as its target T1, mIL-12Rβ2_(D1-D6)-Strep-II Tag (non …). In words: cryo-EM structure.
For test [3], the target named is hIL-23R-CaM (complete extracellular segment of human IL-23 receptor fused to calmodulin) (human, UniProt Q5VWK5 24-355; P0DP23 5-149). In words: cryo-EM structure.
Test [4] deals with T2, hIL-12B (p40), subunit of hIL-23 in the …. Kind of test: cryo-EM structure.
Test [5] concerns the target T3, hIL-12B (p40) of the crystallised …. In words: crystal structure.
The target of test [6] is T5, hIL-12Rβ1_(D3-D5) (domains 3 to 5 of human IL-12 receptor β1) (human, UniProt P42701). In words: crystal structure.
Test [7] addresses T5, hIL-12Rβ1_(D3-D5) (domains 3 to 5 of …). In words: crystal structure. The source holds these as a separate data set.
Test [8] concerns the target B1. Kind of test: cryo-EM structure.
In test [9] the target is T4, mIL-12B (p40), untagged, of the …. Kind of test: crystal structure.

For B1, the binding result in [1] is “binds”.
B2: the binding result in [1] and in [2] was “binds” in each case.
Take B3: the binding result in [3] and in test [4] was “binds” each time.
B4: the binding result in test [5] is recorded as “binds”.
For B5, the binding result in test [6] is “binds”.
Take B6: the binding result in test [7] is “binds”.
Regarding B7, the binding result in test [2] is “binds”.
For B8, the binding result in [8] and in [2] was “binds” in each case.
In the case of B9, the binding result in [9] was “binds”.
